The text below walks through data of US20110104667.

This data set deals with infectious prion protein PrPCWD (CWD prion, elk strain E2) (Cervus canadensis (elk)?) (UniProt P67986). Description: EMSA. Further details: unit not given here. In general terms: Mobility shift assays separate free from complexed probe on a gel.
infectious prion protein PrPCWD (CWD prion, elk strain E2) (Cervus canadensis (elk)?), sequence (P67986 25-233): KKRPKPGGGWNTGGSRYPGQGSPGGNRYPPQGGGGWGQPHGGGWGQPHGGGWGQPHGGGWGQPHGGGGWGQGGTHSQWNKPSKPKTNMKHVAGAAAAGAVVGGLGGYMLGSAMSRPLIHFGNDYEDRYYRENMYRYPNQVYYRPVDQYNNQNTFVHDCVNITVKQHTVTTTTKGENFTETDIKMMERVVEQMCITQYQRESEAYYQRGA

With “TACGACTCACTATAGGGATCCNNNNNNNNNNNNNNNNNNNNNNNNNNNNGAATTCCCTTTAGTGAGGGTT [70-mer DNA randomer library, PrPCWD-retained fraction]”, the Kd is 6e-05.
